± gives the standard deviation.
Assay: protein stability index of a GFP-peptide fusion (GPS, HEK-293T) (PSI 1-6); higher = more stable
Settings: c terminus: a fixed tail appended
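Further: 24-mer peptide tiles fused after GFP, lentivirally expressed, FACS-sorted into six equal bins by GFP/DsRed ratio, decoded by Illumina sequencing, PSI is the read-weighted mean bin number.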

Row | Sequence | protein stability index (treatment: DMSO) | protein stability index (treatment: MLN4924 1 uM, 8 h)
1 | SGIGREGAKDSYDFFTEIKTITVK [ALDH8A1] | 3.27 ± 0.37 | 3.28 ± 0.4
2 | EEANADLEVKIRDWYQRQRPSEIK [KRT16] | 4.14 ± 0.64 | 4.72 ± 0.27
3 | NVGRVHRVAKKLQSGLVWTNCWLI [ALDH8A1] | 3.04 ± 0.41 | 2.61 ± 0.49
4 | SDPSTIEASNFQMDRKTRFIIHGF [PNLIPRP1] | 2.42 ± 0.067 | 2.37 ± 0.26
5 | QNQSDSLLALAGAVQRLEGALWGL [SCARA5] | 2.4 ± 0.35 | 2.33 ± 0.32
6 | SLKEDLTQHKFICEQCGKCKCGEC [SPRY1] | 5.32 ± 0.36 | 5.22 ± 0.14
7 | FKRSTGTWHHTKPLLPSDLRRTGC [GAN] | 2.78 ± 0.22 | 2.82 ± 0.39
8 | ESPIPEDKDRRFVFSYFLATDMIS [EFHC1] | 2.33 ± 0.28 | 2.23 ± 0.29
9 | PAEEAGPEGGLEEPDALDDSLTSL [FOXJ1] | 5.6 ± 0.23 | 5.56 ± 0.34
10 | YQTEQSLRLLVESDINSIRRILDE [KRT34] | 2.85 ± 0.18 | 2.97 ± 0.42
11 | CPHTPEFSVTGGTEEKSSLLMSCL [RPAIN] | 3.38 ± 0.22 | 3.49 ± 0.074
12 | YVYKAASEGKVLTLAALLLNRSES [FEM1B] | 2.78 ± 0.69 | 2.62 ± 0.56
13 | LPILTWPVLQSRTGLVYDQNMMNH [HDAC6] | 2.25 ± 0.23 | 2.3 ± 0.33
14 | YGQGRKIAEVCCTSIVYATEKKQT [KCTD10] | 2.83 ± 0.34 | 3.1 ± 0.21
15 | QAELSYKKVSEGPPLRLWRSVIEV [DLC1] | 2.19 ± 0.31 | 2.49 ± 0.43
16 | TVQGKKGVYMTDITPQGVAMRAGV [PDZK1] | 3.12 ± 0.079 | 3.32 ± 0.25
17 | PQLGLDGPGEPDVRDGFSATFEKI [PSD2] | 4.73 ± 0.18 | 4.67 ± 0.13
18 | PARDGVEASAEGPRAVFVLLEERR [TFE3] | 4.26 ± 0.27 | 4.23 ± 0.073
19 | MHANVEDRGIKGDITPLMAAANGG [ANKRD17] | 4.58 ± 0.14 | 4.67 ± 0.086
20 | KQNGRVAKVKGHRSQKHKERIRLL [C18orf25] | 3.9 ± 0.28 | 3.97 ± 0.29
21 | EEVDVTSVDPIAAFCSSDEELEDS [RBBP5] | 5.55 ± 0.2 | 5.62 ± 0.16
22 | NHLLESMPLREGSSFQDLLGDALA [HES6] | 3.34 ± 0.31 | 3.4 ± 0.31

Row | Sequence | protein stability index (treatment: DMSO) | protein stability index (treatment: MLN4924 1 uM, 8 h)
23 | QRTAKGKPVLAKDSSNPYPNFNFN [AASDHPPT] | 3.43 ± 0.45 | 3.74 ± 0.15
24 | RPVLLSKIEGHQDAVTAALLIPKE [WDFY1] | 3.87 ± 0.28 | 3.94 ± 0.34
25 | LDSRSTDRVLQWERIDCQGIPPSS [KLHDC2] | 4.09 ± 0.29 | 3.98 ± 0.24
26 | LQAPVPPDSVPSLQNMGLLLDKLA [PBXIP1] | 3.11 ± 0.44 | 2.86 ± 0.46
27 | SMLVAGNDRVQTIITQLEDSRRVT [TRIM63] | 3.81 ± 0.077 | 3.72 ± 0.12
28 | MGSLSSRVLRQPRPALAQQAQGAR [GMCL1] | 4.46 ± 0.28 | 4.56 ± 0.18
29 | VRVALDYEAGQVTLHNAQTQEPIF [TRIM15] | 2.29 ± 0.33 | 2.51 ± 0.33
30 | MYDNELWAPASEGLKPGPEDGPGK [SERTAD1] | 4.99 ± 0.46 | 5.25 ± 0.22
31 | DGDAPGSLLPAQVAACAQTVVSLA [CEBPD] | 4.26 ± 0.19 | 4.12 ± 0.39
32 | PAADGARAPRSPGQVTPRGLRLRL [C6orf223] | 3.96 ± 0.12 | 3.97 ± 0.19
33 | VSTFLSGVMLTWPDGLMYQKFRNQ [TMEM120A] | 2.85 ± 0.82 | 2.36 ± 0.54
34 | VDEKGEKVRPSHKRCIVILREIPE [LARP4] | 2.9 ± 0.11 | 3.07 ± 0.037
35 | EEEERDQALQAKASLTIPLVPETE [YJU2B] | 5.42 ± 0.16 | 5.5 ± 0.12
36 | RTRTATMLCAASGNPDPEITWFKD [PTPRD] | 3.64 ± 0.15 | 3.72 ± 0.35
37 | TFFLRTDAETPPRFTRTPVDQTGV [PTPRD] | 3.42 ± 0.16 | 3.28 ± 0.45
38 | TLKKFKGDLAYRRQEYQKALQEYS [C8orf76] | 2.82 ± 0.29 | 2.79 ± 0.31
39 | GIAVWNMDVSREEAPQWLESDSCQ [WDFY1] | 3.81 ± 0.081 | 3.74 ± 0.28
40 | SSLPGHAAKTLPGGAGKGRTPSAF [EHMT1] | 3.98 ± 0.34 | 4.26 ± 0.32
41 | GPRDPQLVPILIEAARNGKMKFVI [NSDHL] | 2.11 ± 0.44 | 2.38 ± 0.38
42 | PGSTRPHRSACSSAAVRGHPRALP [HAGHL] | 3.19 ± 0.23 | 3.15 ± 0.24
43 | SNRHGHTCLMISCYKGHKEIAQYL [FEM1C] | 2.68 ± 0.55 | 2.43 ± 0.39
44 | AVLYPRFMGTISDVKTNVQLLKGR [CD207] | 2.49 ± 0.11 | 2.56 ± 0.16

Row | Sequence | protein stability index (treatment: DMSO) | protein stability index (treatment: MLN4924 1 uM, 8 h)
45 | KCVTMSSAVVQLYAADRNCMWSKK [WASL] | 2.87 ± 0.18 | 2.88 ± 0.29
46 | LLEGTPSSASEGDEDLRRQMQDDE [PALM] | 5.45 ± 0.25 | 5.49 ± 0.28
47 | ATNQCTIDKNRRKSCQACRLRKCY [ESR2] | 3.39 ± 0.25 | 3.47 ± 0.18
48 | AVGGRLRLVPGGQRPADVPEPGRA [HAGHL] | 4.22 ± 0.38 | 4.16 ± 0.43
49 | IPMHIDHDRNMDWVSTQLQATCNV [FADS1] | 3 ± 0.28 | 3.24 ± 0.27
50 | LPQTPHLEEDLKEVLRSEAGIELI [MYBL2] | 4.2 ± 0.44 | 4.37 ± 0.17
51 | EPLQALLERASATLQDLVFDECGI [PRAME] | 2.25 ± 0.2 | 2.67 ± 0.18
52 | PGLSQGPGKETLESALIALDSEKP [EHMT1] | 5.33 ± 0.28 | 5.31 ± 0.18
53 | SNNNGRIKQLRSGGTPIRGALQIE [PTPRD] | 3.76 ± 0.33 | 3.85 ± 0.36
54 | GSDKCVFLKNTEVSSMECEKNLYW [CD69] | 3.06 ± 0.26 | 3.12 ± 0.36
55 | WCRDRLLGHREPSAHPVEVFSFDL [TMEM175] | 2.39 ± 0.3 | 2.25 ± 0.39
56 | PQALPEPMQESKAEGNNQAPGEEE [CHGA] | 5.54 ± 0.24 | 5.5 ± 0.35
57 | EEENIGCEEKAKKNANRPLLDEIV [ACBD3] | 5.25 ± 0.24 | 5.46 ± 0.24
58 | LPPEKGREVAKELGLPYYETSVFD [RHOBTB1] | 3.65 ± 0.18 | 3.8 ± 0.24
59 | SVVSYTLKDIHDDQDYLHSLGKAR [FLOT1] | 3.43 ± 0.3 | 3.54 ± 0.28
60 | NFEKLRLSLQDQVDTLTFQSQSLR [MTUS2] | 3.01 ± 0.22 | 3.14 ± 0.37
61 | RIPYTKSQTEAHYSCQSKEILRYM [P2RY14] | 2.42 ± 0.32 | 2.45 ± 0.49
62 | CSCEWMAAMFGGSFVESANSEVYL [RHOBTB1] | 2.96 ± 0.62 | 2.85 ± 0.89
63 | MFSFNMFDHPIPRVFQNRFSTQYR [UFD1] | 2.13 ± 0.17 | 2.22 ± 0.22
64 | EVSSIQVRRKPQHGVCSQLLGNYR [SERPINB9P1] | 2.84 ± 0.38 | 2.94 ± 0.29
65 | VLAIPRRLRVELECEEGELSFYDA [TRIM35] | 2.96 ± 0.2 | 3.08 ± 0.23

Reference: the supplement of paper PMC10567573
